{
  "source": "paper PMC9952701",
  "target": "insulin-like growth factor receptor type 1 (IGF1R) (mouse (endogenous in HEI-OC1)) (UniProt Q60751)",
  "sequence (Q60751 31-1373)": "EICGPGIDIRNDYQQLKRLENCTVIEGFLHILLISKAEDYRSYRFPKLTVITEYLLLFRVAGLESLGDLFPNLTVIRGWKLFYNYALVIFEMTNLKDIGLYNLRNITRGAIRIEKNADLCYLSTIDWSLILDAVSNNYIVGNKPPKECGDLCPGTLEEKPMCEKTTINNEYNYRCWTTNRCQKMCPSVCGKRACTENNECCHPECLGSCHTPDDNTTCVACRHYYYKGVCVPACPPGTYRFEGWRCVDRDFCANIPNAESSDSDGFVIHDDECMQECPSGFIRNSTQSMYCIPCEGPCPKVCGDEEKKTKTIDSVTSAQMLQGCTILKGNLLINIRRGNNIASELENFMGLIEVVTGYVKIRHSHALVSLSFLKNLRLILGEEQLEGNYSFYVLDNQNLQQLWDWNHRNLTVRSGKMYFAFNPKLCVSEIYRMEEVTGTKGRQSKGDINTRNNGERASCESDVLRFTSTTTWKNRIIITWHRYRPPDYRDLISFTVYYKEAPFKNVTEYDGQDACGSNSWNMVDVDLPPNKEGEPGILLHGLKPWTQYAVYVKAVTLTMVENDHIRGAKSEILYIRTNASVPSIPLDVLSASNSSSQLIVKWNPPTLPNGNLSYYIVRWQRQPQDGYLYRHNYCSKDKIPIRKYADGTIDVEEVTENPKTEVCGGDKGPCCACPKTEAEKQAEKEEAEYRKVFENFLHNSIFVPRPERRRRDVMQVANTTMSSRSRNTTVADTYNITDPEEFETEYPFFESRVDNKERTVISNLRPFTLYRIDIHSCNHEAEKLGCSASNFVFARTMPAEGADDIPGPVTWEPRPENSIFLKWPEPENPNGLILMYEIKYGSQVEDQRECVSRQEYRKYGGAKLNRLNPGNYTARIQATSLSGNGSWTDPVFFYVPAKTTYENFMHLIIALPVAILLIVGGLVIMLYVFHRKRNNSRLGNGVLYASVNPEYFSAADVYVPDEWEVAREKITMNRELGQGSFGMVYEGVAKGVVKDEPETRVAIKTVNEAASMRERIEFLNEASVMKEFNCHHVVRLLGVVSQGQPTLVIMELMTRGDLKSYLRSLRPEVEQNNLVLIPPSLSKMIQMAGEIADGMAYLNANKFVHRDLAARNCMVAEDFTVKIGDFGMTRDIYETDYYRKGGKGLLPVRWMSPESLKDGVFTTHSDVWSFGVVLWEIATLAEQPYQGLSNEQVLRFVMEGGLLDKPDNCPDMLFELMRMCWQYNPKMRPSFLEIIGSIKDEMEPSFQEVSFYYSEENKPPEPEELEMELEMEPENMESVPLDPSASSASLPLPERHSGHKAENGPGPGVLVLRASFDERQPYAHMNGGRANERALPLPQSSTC",
  "data": [
    {"substance": "human recombinant IGF-1 (insulin-like growth factor 1) (from UniProt P05019 49-118) (ligand)", "values": [
      {"measurement": "p-IGF1Rβ (Tyr1135) level by Western blot in HEI-OC1 progenitor cells treated with IGF-1 (10 nM), sustained for 30 min, versus untreated control", "result": 11, "unit": "fold"},
      {"measurement": "p-IGF1Rβ (Tyr1135) level by Western blot in differentiated HEI-OC1 cells treated with IGF-1 (10 nM) for 5 min, versus untreated control", "result": 3.5, "unit": "fold"}
    ]}
  ]
}
